From FireProtDB (doi:10.1016/0003-9861(92)90047-z)

B1: Tryptophan synthase alpha chain, P0A877 (parent)
chain: MERYESLFAQLKERKEGAFVPFVTLGDPGIEQSLKIIDTLIEAGADALELGIPFSDPLADGPTIQNATLRAFAAGVTPAQCFEMLALIRQKHPTIPIGLLMYANLVFNKGIDEFYAQCEKVGVDSVLVADVPVEESAPFRQAALRHNVAPIFICPPNADDDLLRQIASYGRGYTYLLSRAGVTGAENRAALPLNHLVAKLKEYNAAPPLQGFGISAPDQVKAAIDAGAAGAISGSAIVKIIEQHINEPEKMLAALKVFVQPMKAATRS

Variants of: B1
Conditions: Escherichia coli (strain K12); pH 7.2; Thermal; DSC; Sodium phosphate 1 mM; reversible: yes; structure 1WQ5; whole UniProt chain shown

| Variant | Tm [°C] | change of melting temperature, mutant - wild type (higher = more stable) [°C] |
| --- | --- | --- |
| P53T | 55.2 | -4.3 |
| P53H | 56.2 | -3.3 |
| Y115C | 57.2 | -2.3 |
| D112G | 54.4 | -5.1 |
| D112N | 56.4 | -3.1 |
| F22S | 60.3 | 0.8 |
| P28L | 54.9 | -4.6 |
| P78L | 61.4 | 1.9 |
| P78S | 57.9 | -1.6 |
| G51D | 55 | -4.5 |
| Q65R | 58.9 | -0.6 |
| T63K | 56.2 | -3.3 |
| E49G | 57.7 | -1.8 |
| S33L | 51.9 | -7.6 |
| Y102H | 60.3 | 0.8 |
| Y102C | 60.9 | 1.4 |
| M101I | 63.2 | 3.7 |
| M101V | 67.1 | 7.6 |
| M101T | 67.1 | 7.6 |
| P21S | 55.2 | -4.3 |
| T24M | 61.8 | 2.3 |
| F114L | 56.2 | -3.3 |
| A67V | 56.8 | -2.7 |
| D56G | 57.5 | -2 |
| S6P | 54.3 | -5.2 |
| P62Q | 58.9 | -0.6 |
| D60G | 56.9 | -2.6 |
